In patent publication EP2379590B1 (Development Center for Biotechnology, dated 2018):

Legend:
Assay in all cases: cell-based or functional assay
[1] = biological target: glycoprotein D of HSV-1 KOS, on infectious virus (HSV-1 (KOS strain), UniProt A1Z0Q5 26-394)
[2] = biological target: glycoprotein D of HSV-1 00410 (clinical strain), on infectious virus (HSV-1 (clinical strain 00410))
[3] = biological target: glycoprotein D of HSV-2 186, on infectious virus (HSV-2 (strain 186))
[4] = biological target: glycoprotein D of HSV-2 00040 (clinical strain), on infectious virus (HSV-2 (clinical strain 00040))

glycoprotein D of HSV-1 KOS, on infectious virus, sequence (A1Z0Q5 26-394 limits assumed): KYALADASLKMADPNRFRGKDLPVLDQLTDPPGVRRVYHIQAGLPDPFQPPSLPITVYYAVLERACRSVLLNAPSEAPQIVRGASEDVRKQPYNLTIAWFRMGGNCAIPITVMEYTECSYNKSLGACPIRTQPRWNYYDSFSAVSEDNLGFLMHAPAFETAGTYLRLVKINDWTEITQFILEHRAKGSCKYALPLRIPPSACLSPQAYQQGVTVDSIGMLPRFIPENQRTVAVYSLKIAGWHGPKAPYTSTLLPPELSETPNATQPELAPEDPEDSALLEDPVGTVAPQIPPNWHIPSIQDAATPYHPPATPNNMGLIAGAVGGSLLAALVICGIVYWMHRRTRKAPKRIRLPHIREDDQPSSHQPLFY

B1: scFv E425 (scFv, not shown: small tags and cut ends)
scFv: QVQLQQSGAGVKKPGSSVRVSCSASGGTLRTYALSWVRQVPGQGFEWMGRIIPMFGKTDYAQKFQGRLSITADKSMDTGFMELTSLTSEDTAVYYCARDLTTLTSYNWLDIWGQGTLVTVSSGGGGSGGGGSGGGGSETTLTQSPGTLSLSPGERATLSCRASQSVSSNYLAWYQKKPGQAPRLLIYGASSRATGIPDRFSGSGSGTDFTLTINRLEPEDFAVYYCQQYGRSPTFGQGTKVEIKR
IC50, plaque reduction assay in Vero cells (HSV-1 KOS) [1]: 2.2 nM | IC50, plaque reduction assay in Vero cells (HSV-1 00410) [2]: 1.8 nM | IC50, plaque reduction assay in Vero cells (HSV-2 186) [3]: 4.5 nM | IC50, plaque reduction assay in Vero cells (HSV-2 00040) [4]: 1.16 nM
